The numbers were not newly measured in PMC7855784, which cites them from elsewhere.

The target of this data set is HER2 ECD (Homo sapiens) (UniProt P04626).

In the case of PEPD (from UniProt P12955), the dissociation constant (Kd) (in general, the equilibrium constant for the complex coming apart) is 7.3 nM.
